The data set addresses T1, Rox1 (Saccharomyces cerevisiae, UniProt P25042 1-368).
T1 sequence: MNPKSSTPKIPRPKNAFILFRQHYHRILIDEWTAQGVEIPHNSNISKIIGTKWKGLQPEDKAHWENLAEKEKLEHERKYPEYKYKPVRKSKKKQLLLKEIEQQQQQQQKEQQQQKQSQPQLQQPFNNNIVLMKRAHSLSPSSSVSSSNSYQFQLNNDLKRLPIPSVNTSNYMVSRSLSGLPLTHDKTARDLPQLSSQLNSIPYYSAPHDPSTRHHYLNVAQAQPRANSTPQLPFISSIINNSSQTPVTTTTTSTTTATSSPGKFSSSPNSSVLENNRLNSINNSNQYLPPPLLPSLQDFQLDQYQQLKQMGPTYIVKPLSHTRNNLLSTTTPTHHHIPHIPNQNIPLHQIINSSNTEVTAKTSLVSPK
Description: EMSA. (Mobility shift assays separate free from complexed probe on a gel.)

B1: HMG6bp (dsDNA)
DNA 1: TGATTGTCAATTTAGTTAATCATTGTTATTAATAAAGGAAAGATATAAAA
DNA 2: TTTTATATCTTTCCTTTATTAATAACAATGATTAACTAAATTGACAATCA
B1: the binding result is reported as “binds”.

Source of the values: article PMC6941230.
